Data taken from the RNAGym collection of RNA variant scans (doi:10.1101/gr.219683.116).

B1: mRNA-splicing (parent)
chain: AGUUGCUGCUGGGAGCUCCAGCACAGUGAAAUGGACAGAAGGGCAGAGCAA

Variants of: B1
Experiment: exon inclusion enrichment index; higher = more inclusion; WT1 exon 5 minigene, HEK293

Variant | exon inclusion enrichment index
AGUUCACACAGGGAGCUCCAGAACAGUGAAAUGGACAGAAGGGCAGAGCAA [G5C C6A U7C G8A U10A C22A] | 0.0834
AGUUCACACAGGGAGCUCCAGACCAGUGAAAUGGACAGAAGGGCAGAGCAA [G5C C6A U7C G8A U10A C22A A23C] | 0.364
AGUUCACACAGGGAGCUCCAGAGCAGUGAAAUGGACAGAAGGGCAGAGCAA [G5C C6A U7C G8A U10A C22A A23G] | 0.124
AGUUCACACAGGGAGCUCCAGAUCAGUGAAAUGGACAGAAGGGCAGAGCAA [G5C C6A U7C G8A U10A C22A A23U] | 0.0806
AGUUCACACAGGGAGCUCCAGGACAGUGAAAUGGACAGAAGGGCAGAGCAA [G5C C6A U7C G8A U10A C22G] | 0.197
AGUUCACACAGGGAGCUCCAGGCCAGUGAAAUGGACAGAAGGGCAGAGCAA [G5C C6A U7C G8A U10A C22G A23C] | 0.0525
AGUUCACACAGGGAGCUCCAGGGCAGUGAAAUGGACAGAAGGGCAGAGCAA [G5C C6A U7C G8A U10A C22G A23G] | 0.043
AGUUCACACAGGGAGCUCCAGGUCAGUGAAAUGGACAGAAGGGCAGAGCAA [G5C C6A U7C G8A U10A C22G A23U] | 0.0222
AGUUCACACAGGGAGCUCCAGUACAGUGAAAUGGACAGAAGGGCAGAGCAA [G5C C6A U7C G8A U10A C22U] | 0.0831
AGUUCACACAGGGAGCUCCAGUCCAGUGAAAUGGACAGAAGGGCAGAGCAA [G5C C6A U7C G8A U10A C22U A23C] | 0.0379
AGUUCACACAGGGAGCUCCAGUGCAGUGAAAUGGACAGAAGGGCAGAGCAA [G5C C6A U7C G8A U10A C22U A23G] | 0.114
AGUUCACACAGGGAGCUCCAGUUCAGUGAAAUGGACAGAAGGGCAGAGCAA [G5C C6A U7C G8A U10A C22U A23U] | 0.0622
AGUUCACACAGGGAGCUCCAGCAAAGUGAAAUGGACAGAAGGGCAGAGCAA [G5C C6A U7C G8A U10A C24A] | 0.105
AGUUCACACAGGGAGCUCCAGCAACGUGAAAUGGACAGAAGGGCAGAGCAA [G5C C6A U7C G8A U10A C24A A25C] | 0.742
AGUUCACACAGGGAGCUCCAGCAAGGUGAAAUGGACAGAAGGGCAGAGCAA [G5C C6A U7C G8A U10A C24A A25G] | 0.156
AGUUCACACAGGGAGCUCCAGCAAUGUGAAAUGGACAGAAGGGCAGAGCAA [G5C C6A U7C G8A U10A C24A A25U] | 0.146
AGUUCACACAGGGAGCUCCAGCAGAGUGAAAUGGACAGAAGGGCAGAGCAA [G5C C6A U7C G8A U10A C24G] | 0.119
AGUUCACACAGGGAGCUCCAGCAGCGUGAAAUGGACAGAAGGGCAGAGCAA [G5C C6A U7C G8A U10A C24G A25C] | 0.71
AGUUCACACAGGGAGCUCCAGCAGGGUGAAAUGGACAGAAGGGCAGAGCAA [G5C C6A U7C G8A U10A C24G A25G] | 0.034
AGUUCACACAGGGAGCUCCAGCAGUGUGAAAUGGACAGAAGGGCAGAGCAA [G5C C6A U7C G8A U10A C24G A25U] | 0.184
AGUUCACACAGGGAGCUCCAGCAUAGUGAAAUGGACAGAAGGGCAGAGCAA [G5C C6A U7C G8A U10A C24U] | 0.0213
AGUUCACACAGGGAGCUCCAGCAUCGUGAAAUGGACAGAAGGGCAGAGCAA [G5C C6A U7C G8A U10A C24U A25C] | 0.98
AGUUCACACAGGGAGCUCCAGCAUGGUGAAAUGGACAGAAGGGCAGAGCAA [G5C C6A U7C G8A U10A C24U A25G] | 0.334
AGUUCACACAGGGAGCUCCAGCAUUGUGAAAUGGACAGAAGGGCAGAGCAA [G5C C6A U7C G8A U10A C24U A25U] | 0.151
AGUUCACACAGGGAGCUCCAGCACAGUGAAAUGGAAAGAAGGGCAGAGCAA [G5C C6A U7C G8A U10A C36A] | 0.0935
AGUUCACACAGGGAGCUCCAGCACAGUGAAAUGGAACGAAGGGCAGAGCAA [G5C C6A U7C G8A U10A C36A A37C] | 0.146

Variant | exon inclusion enrichment index
AGUUCACACAGGGAGCUCCAGCACAGUGAAAUGGAAGGAAGGGCAGAGCAA [G5C C6A U7C G8A U10A C36A A37G] | 0.0468
AGUUCACACAGGGAGCUCCAGCACAGUGAAAUGGAAUGAAGGGCAGAGCAA [G5C C6A U7C G8A U10A C36A A37U] | 0.0382
AGUUCACACAGGGAGCUCCAGCACAGUGAAAUGGAGAGAAGGGCAGAGCAA [G5C C6A U7C G8A U10A C36G] | 0.0563
AGUUCACACAGGGAGCUCCAGCACAGUGAAAUGGAGCGAAGGGCAGAGCAA [G5C C6A U7C G8A U10A C36G A37C] | 0.0273
AGUUCACACAGGGAGCUCCAGCACAGUGAAAUGGAGGGAAGGGCAGAGCAA [G5C C6A U7C G8A U10A C36G A37G] | 0.00352
AGUUCACACAGGGAGCUCCAGCACAGUGAAAUGGAGUGAAGGGCAGAGCAA [G5C C6A U7C G8A U10A C36G A37U] | 0.0414
AGUUCACACAGGGAGCUCCAGCACAGUGAAAUGGAUAGAAGGGCAGAGCAA [G5C C6A U7C G8A U10A C36U] | 0.0372
AGUUCACACAGGGAGCUCCAGCACAGUGAAAUGGAUCGAAGGGCAGAGCAA [G5C C6A U7C G8A U10A C36U A37C] | 0.0938
AGUUCACACAGGGAGCUCCAGCACAGUGAAAUGGAUGGAAGGGCAGAGCAA [G5C C6A U7C G8A U10A C36U A37G] | 0.111
AGUUCACACAGGGAGCUCCAGCACAGUGAAAUGGAUUGAAGGGCAGAGCAA [G5C C6A U7C G8A U10A C36U A37U] | 0.0725
AGUUCACACAGGGAGCUCCAGCACAGUGAAAUGGACAGAAGGGAAGAGCAA [G5C C6A U7C G8A U10A C44A] | 0.477
AGUUCACACAGGGAGCUCCAGCACAGUGAAAUGGACAGAAGGGACGAGCAA [G5C C6A U7C G8A U10A C44A A45C] | 0.385
AGUUCACACAGGGAGCUCCAGCACAGUGAAAUGGACAGAAGGGAGGAGCAA [G5C C6A U7C G8A U10A C44A A45G] | 0.213
AGUUCACACAGGGAGCUCCAGCACAGUGAAAUGGACAGAAGGGAUGAGCAA [G5C C6A U7C G8A U10A C44A A45U] | 0.339
AGUUCACACAGGGAGCUCCAGCACAGUGAAAUGGACAGAAGGGGAGAGCAA [G5C C6A U7C G8A U10A C44G] | 0.198
AGUUCACACAGGGAGCUCCAGCACAGUGAAAUGGACAGAAGGGGCGAGCAA [G5C C6A U7C G8A U10A C44G A45C] | 0.204
AGUUCACACAGGGAGCUCCAGCACAGUGAAAUGGACAGAAGGGGGGAGCAA [G5C C6A U7C G8A U10A C44G A45G] | 0.00762
AGUUCACACAGGGAGCUCCAGCACAGUGAAAUGGACAGAAGGGGUGAGCAA [G5C C6A U7C G8A U10A C44G A45U] | 0.109
AGUUCACACAGGGAGCUCCAGCACAGUGAAAUGGACAGAAGGGUAGAGCAA [G5C C6A U7C G8A U10A C44U] | 0.0254
AGUUCACACAGGGAGCUCCAGCACAGUGAAAUGGACAGAAGGGUCGAGCAA [G5C C6A U7C G8A U10A C44U A45C] | 0.252
AGUUCACACAGGGAGCUCCAGCACAGUGAAAUGGACAGAAGGGUGGAGCAA [G5C C6A U7C G8A U10A C44U A45G] | 0.0445
AGUUCACACAGGGAGCUCCAGCACAGUGAAAUGGACAGAAGGGUUGAGCAA [G5C C6A U7C G8A U10A C44U A45U] | 0.0623
AGUUCACACAAGGAGCUCCAGCACAGUGAAAUGGACAGAAGGGCAGAGCAA [G5C C6A U7C G8A U10A G11A] | 0.832
AGUUCACACAAAGAGCUCCAGCACAGUGAAAUGGACAGAAGGGCAGAGCAA [G5C C6A U7C G8A U10A G11A G12A] | 0.202
AGUUCACACAACGAGCUCCAGCACAGUGAAAUGGACAGAAGGGCAGAGCAA [G5C C6A U7C G8A U10A G11A G12C] | 0.495
